# Experiments:
# [1] = target: human EGFR, C-terminal eGFP-tagged, on CHO-K1 cells (human, UniProt P00533 25-1210); assay: cell-based or functional assay
# [2] = target: EGFR on HeLa cells (UniProt P00533 25-1210, limits assumed); assay: cell-based or functional assay
"EC50 CHO-K1 EGFR Low (nM); T cell activation bioassay, luciferase [1]","EC50 CHO-K1 EGFR Med (nM); T cell activation bioassay, luciferase [1]",X… HeLa EC50 [2],Binder,Max killing % [2]
0.0291 nM,0.00412 nM,,"GOMP001_bsAb_056 (bispecific antibody, human IgG1, kappa, L234A L235A) heavy 1: EVNLVESGGGLVQPGRSLRLSCAASGFTFDDYTMHWVRYVPGKGLEWVSNISWNSGSLGYADRVKGRFTISRDNAKDSLYLQMNSLRVEDTALYYCAKDSSGYGHYNSYYMDVWGRGTTVTVSSASTKGPSVFPLAPSSKSTSGGTAALGCLVKDYFPEPVTVSWNSGALTSGVHTFPAVLQSSGLYSLSSVVTVPSSSLGTQTYICNVNHKPSNTKVDKKVEPKSCDKTHTCPPCPAPEAAGGPSVFLFPPKPKDTLMISRTPEVTCVVVDVSHEDPEVKFNWYVDGVEVHNAKTKPREEQYNSTYRVVSVLTVLHQDWLNGKEYKCKVSNKALPAPIEKTISKAKGQPRRPRVYTLPPSREEMTKNQVSLVCLVKGFYPSDIAVEWESNGQPENNYKTTPPVLDSDGSFFLYSVLTVDKSRWQQGNVFSCSVMHEALHNHYTQKSLSLSPG light 1: DIQMTQSPSSLSASVGDRVTITCRASQSIRNYLNWYQRKPGDAPKVLIYSASSLQSGVPSRFSGSGSGTDFTLTISSLQPEDFASFYCQQTYSTPITFGQGTRLEIKRTVAAPSVFIFPPSDEQLKSGTASVVCLLNNFYPREAKVQWKVDNALQSGNSQESVTEQDSKDSTYSLSSTLTLSKADYEKHKVYACEVTHQGLSSPVTKSFNRGEC heavy 2: QVQLVQSGAEVKKPGASVKVSCKASGYTFTSHWMHWVRYAPGQGLEWIGEFNPSNGRTNYNEKFKSKATMTVDTSTNTAYMELSSLRSEDTAVYYCASRDYDYDGRYFDYWGRGTLVTVSSASTKGPSVFPLAPSSKSTSGGTAALGCLVKDYFPEPVTVSWNSGALTSGVHTFPAVLQSSGLYSLSSVVTVPSSSLGTQTYICNVNHKPSNTKVDKKVEPKSCDKTHTCPPCPAPEAAGGPSVFLFPPKPKDTLMISRTPEVTCVVVDVSHEDPEVKFNWYVDGVEVHNAKTKPREEQYNSTYRVVSVLTVLHQDWLNGKEYKCKVSNKALPAPIEKTISKAKGQPRRPRVYTLPPSREEMTKNQVSLVCLVKGFYPSDIAVEWESNGQPENNYKTTPPVLDSDGSFFLYSVLTVDKSRWQQGNVFSCSVMHEALHNHYTQKSLSLSPG light 2: DIQMTQSPSSLSASVGDRVTITCSASSSVTYMYWYQRKPGDAPKLLIYDTSNLASGVPSRFSGSGSGTDYTFTISSLQPEDIATYYCQQWSSHIFTFGQGTKVEIKRTVAAPSVFIFPPSDEQLKSGTASVVCLLNNFYPREAKVQWKVDNALQSGNSQESVTEQDSKDSTYSLSSTLTLSKADYEKHKVYACEVTHQGLSSPVTKSFNRGEC",
,,0.668 nM,"GOMP001_bsAb_013 (bispecific antibody, human IgG1, kappa, L234A L235A) heavy 1: QVQLVQSGAEVKKPGASVKVSCKASGYTFTSHWMHWVRKAPGQGLEWIGEFNPSNGRTNYNEEFKSKATMTVDTSTNTAYMELSSLRSEDTAVYYCASRDYDYDGRYFDYWGQGTLVTVSSASTKGPSVFPLAPSSKSTSGGTAALGCLVADYFPEPVTVSWNSGALTSGVHTFPAVLQSSGLYSLSSVVTVPSSSLGTQTYICNVNHKPSNTKVDEKVEPKSCDKTHTCPPCPAPEAAGGPSVFLFPPKPKDTLMISRTPEVTCVVVDVSHEDPEVKFNWYVDGVEVHNAKTKPREEQYNSTYRVVSVLTVLHQDWLNGKEYKCKVSNKALPAPIEKTISKAKGQPREPQVYTLPPSREEMTDNQVSLTCLVKGFYPSDIAVEWESNGQPENNYKTTPPVLMSDGSFFLASKLTVDKSRWQQGNVFSCSVMHEALHNHYTQKSLSLSPG light 1: RIQMTQSPSSLSASVGDRVTITCSASSSVTYMYWYQDKPGKAPKLLIYDTSNLASGVPSRFSGSGSGTDYTFTISSLQPEDIATYYCQQWSSHIFTFGQGTKVEIKRTVAAPSVFIFPPSDKQLKSGTARVVCLLNNFYPREAKVQWKVDNALQSGNSQESVTEQDSKDSTYSLSSTLTLSKADYEKHKVYACEVTHQGLSSPVTKSFNRGEC heavy 2: QVQLVQSGAEVKKPGASVKVSCKASGYTFTSYDINWVRYATGQGLEWMGWMNPKSGKTGYAQKFQGRITMTRNTPISTVYMDLSSLRSEDTAVYYCAREGHYDFWTGYYSFDYWGRGTLVTVSSASTKGPSVFPLAPSSKSTSGGTAALGCLVKDYFPEPVTVSWNSGALTSGVHTFPAVLQSSGLYSLSSVVTVPSSSLGTQTYICNVNHKPSNTKVDKKVEPKSCDKTHTCPPCPAPEAAGGPSVFLFPPKPKDTLMISRTPEVTCVVVDVSHEDPEVKFNWYVDGVEVHNAKTKPREEQYNSTYRVVSVLTVLHQDWLNGKEYKCKVSNKALPAPIEKTISKAKGQPRRPRVYTLPPSREEMTKNQVSLVCLVKGFYPSDIAVEWESNGQPENNYKTTPPVLDSDGSFFLYSVLTVDKSRWQQGNVFSCSVMHEALHNHYTQKSLSLSPG light 2: DIQMTQSPSSLSASVGDRVTITCRASQGIRNDLGWYQRTPGDAPKRLIYAASSLQSGVPSRFSGSGSGTEFTLTISSLQPEDFATYYCLQHYSYPYTFGQGTKLEIKRTVAAPSVFIFPPSDEQLKSGTASVVCLLNNFYPREAKVQWKVDNALQSGNSQESVTEQDSKDSTYSLSSTLTLSKADYEKHKVYACEVTHQGLSSPVTKSFNRGEC",80.8%
,,0.0693 nM,"GOMP001_bsAb_011 (bispecific antibody, human IgG1, kappa, L234A L235A) heavy 1: QVQLVQSGAEVKKPGASVKVSCKASGYTFTSHWMHWVRKAPGQGLEWIGEFNPSNGRTNYNEEFKSKATMTVDTSTNTAYMELSSLRSEDTAVYYCASRDYDYDGRYFDYWGQGTLVTVSSASTKGPSVFPLAPSSKSTSGGTAALGCLVADYFPEPVTVSWNSGALTSGVHTFPAVLQSSGLYSLSSVVTVPSSSLGTQTYICNVNHKPSNTKVDEKVEPKSCDKTHTCPPCPAPEAAGGPSVFLFPPKPKDTLMISRTPEVTCVVVDVSHEDPEVKFNWYVDGVEVHNAKTKPREEQYNSTYRVVSVLTVLHQDWLNGKEYKCKVSNKALPAPIEKTISKAKGQPREPQVYTLPPSREEMTDNQVSLTCLVKGFYPSDIAVEWESNGQPENNYKTTPPVLMSDGSFFLASKLTVDKSRWQQGNVFSCSVMHEALHNHYTQKSLSLSPG light 1: RIQMTQSPSSLSASVGDRVTITCSASSSVTYMYWYQDKPGKAPKLLIYDTSNLASGVPSRFSGSGSGTDYTFTISSLQPEDIATYYCQQWSSHIFTFGQGTKVEIKRTVAAPSVFIFPPSDKQLKSGTARVVCLLNNFYPREAKVQWKVDNALQSGNSQESVTEQDSKDSTYSLSSTLTLSKADYEKHKVYACEVTHQGLSSPVTKSFNRGEC heavy 2: EVQLVESGGGLVQPGGSLRLSCAASGFTLSSYTMNWVRYAPGKGLEWVSYISSSSRTIYYSDRVKGRFSISRDNAKNSLYLQMNSLRDEDTALYYCAREDYYDSSGFDNWGRGTLVTVSSASTKGPSVFPLAPSSKSTSGGTAALGCLVKDYFPEPVTVSWNSGALTSGVHTFPAVLQSSGLYSLSSVVTVPSSSLGTQTYICNVNHKPSNTKVDKKVEPKSCDKTHTCPPCPAPEAAGGPSVFLFPPKPKDTLMISRTPEVTCVVVDVSHEDPEVKFNWYVDGVEVHNAKTKPREEQYNSTYRVVSVLTVLHQDWLNGKEYKCKVSNKALPAPIEKTISKAKGQPRRPRVYTLPPSREEMTKNQVSLVCLVKGFYPSDIAVEWESNGQPENNYKTTPPVLDSDGSFFLYSVLTVDKSRWQQGNVFSCSVMHEALHNHYTQKSLSLSPG light 2: DIRMTQSPSSFSASTGDRVTITCRASQGISSYLAWYQRKPGDAPKLLIYTASTLQSGVPSRFSGSGSGTDFTLTIRSLQSEDFATYYCQQYYSYPRTFGQGTKVEIKRTVAAPSVFIFPPSDEQLKSGTASVVCLLNNFYPREAKVQWKVDNALQSGNSQESVTEQDSKDSTYSLSSTLTLSKADYEKHKVYACEVTHQGLSSPVTKSFNRGEC",77.8%
,,0.0395 nM,"GOMP001_bsAb_012 (bispecific antibody, human IgG1, kappa, L234A L235A) heavy 1: EVQLVESGGGLVQPGGSLRLSCAASGFTLSSYTMNWVRKAPGKGLEWVSYISSSSRTIYYSDEVKGRFSISRDNAKNSLYLQMNSLRDEDTALYYCAREDYYDSSGFDNWGQGTLVTVSSASTKGPSVFPLAPSSKSTSGGTAALGCLVADYFPEPVTVSWNSGALTSGVHTFPAVLQSSGLYSLSSVVTVPSSSLGTQTYICNVNHKPSNTKVDEKVEPKSCDKTHTCPPCPAPEAAGGPSVFLFPPKPKDTLMISRTPEVTCVVVDVSHEDPEVKFNWYVDGVEVHNAKTKPREEQYNSTYRVVSVLTVLHQDWLNGKEYKCKVSNKALPAPIEKTISKAKGQPREPQVYTLPPSREEMTDNQVSLTCLVKGFYPSDIAVEWESNGQPENNYKTTPPVLMSDGSFFLASKLTVDKSRWQQGNVFSCSVMHEALHNHYTQKSLSLSPG light 1: RIRMTQSPSSFSASTGDRVTITCRASQGISSYLAWYQDKPGKAPKLLIYTASTLQSGVPSRFSGSGSGTDFTLTIRSLQSEDFATYYCQQYYSYPRTFGQGTKVEIKRTVAAPSVFIFPPSDKQLKSGTARVVCLLNNFYPREAKVQWKVDNALQSGNSQESVTEQDSKDSTYSLSSTLTLSKADYEKHKVYACEVTHQGLSSPVTKSFNRGEC heavy 2: QVQLVQSGAEVKKPGASVKVSCKASGYTFTSHWMHWVRYAPGQGLEWIGEFNPSNGRTNYNEKFKSKATMTVDTSTNTAYMELSSLRSEDTAVYYCASRDYDYDGRYFDYWGRGTLVTVSSASTKGPSVFPLAPSSKSTSGGTAALGCLVKDYFPEPVTVSWNSGALTSGVHTFPAVLQSSGLYSLSSVVTVPSSSLGTQTYICNVNHKPSNTKVDKKVEPKSCDKTHTCPPCPAPEAAGGPSVFLFPPKPKDTLMISRTPEVTCVVVDVSHEDPEVKFNWYVDGVEVHNAKTKPREEQYNSTYRVVSVLTVLHQDWLNGKEYKCKVSNKALPAPIEKTISKAKGQPRRPRVYTLPPSREEMTKNQVSLVCLVKGFYPSDIAVEWESNGQPENNYKTTPPVLDSDGSFFLYSVLTVDKSRWQQGNVFSCSVMHEALHNHYTQKSLSLSPG light 2: DIQMTQSPSSLSASVGDRVTITCSASSSVTYMYWYQRKPGDAPKLLIYDTSNLASGVPSRFSGSGSGTDYTFTISSLQPEDIATYYCQQWSSHIFTFGQGTKVEIKRTVAAPSVFIFPPSDEQLKSGTASVVCLLNNFYPREAKVQWKVDNALQSGNSQESVTEQDSKDSTYSLSSTLTLSKADYEKHKVYACEVTHQGLSSPVTKSFNRGEC",93.3%

# From patent US20230295310A1 (ABCELLERA BIOLOGICS, published 2023)
